Assay results: FireProtDB (doi:10.1002/prot.340220405)

Conditions: Escherichia coli (strain K12); pH 8; 25 °C; Urea; CD; Na-PIPES 50 mM; reversible: yes; whole UniProt chain shown

B1: Chemotaxis protein CheY wild type, P0AE67 (protein)
chain: MADKELKFLVVDDFSTMRRIVRNLLKELGFNNVEEAEDGVDALNKLQAGGYGFVISDWNMPNMDGLELLKTIRADGAMSALPVLMVTAEAKKENIIAAAQAGASGYVVKPFTAATLEEKLNKIFEKLGM
**Q.** Which results are given for B1?
**A.** denaturant m value: 1.6 kcal/mol/M; denaturant midpoint (higher = more stable): 3.5 M; unfolding free energy: 5.6 kcal/mol
